According to publication PMC7589864:

Biological target: F-actin of thin filaments in ghost fibers from rabbit psoas muscle (rabbit (endogenous in psoas muscle fibers)) (UniProt P68135)
Test: polarized microfluorimetry of ghost muscle fibers; 5-IAF-labelled Tpm incorporated into ghost fibers (2 mg/mL, 2-3 h); sum of the four polarized fluorescence intensities of Tpm-AF, in the presence of S1

Sequence of recombinant control (wild-type) human tropomyosin Tpm2.2 (natural protein) (P07951 whole entry): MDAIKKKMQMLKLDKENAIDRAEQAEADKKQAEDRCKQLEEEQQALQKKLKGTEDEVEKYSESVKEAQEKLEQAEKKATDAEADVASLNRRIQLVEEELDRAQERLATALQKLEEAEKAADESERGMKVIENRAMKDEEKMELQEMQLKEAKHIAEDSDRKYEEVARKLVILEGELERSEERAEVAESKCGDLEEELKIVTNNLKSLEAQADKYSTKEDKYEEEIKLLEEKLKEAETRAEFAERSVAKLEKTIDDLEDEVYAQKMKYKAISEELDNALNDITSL

sum of fluorescence intensities for Tpm-AF (Isum) in ghost fibers | Substance
1030 | recombinant control (wild-type) human tropomyosin Tpm2.2 (natural protein)
978 | recombinant mutant human tropomyosin Tpm2.2 with the Gln147Pro substitution (natural protein)
